Reference: US20090111098A1, “REPORTER GENE ASSAY” (Shionogi & Co., Ltd., priority 2005, published 2009)

System: IL-4 regulatory element (STAT6)
Assay: Confirmation of transcriptional regulatory activity: IL-4 stimulation of reporter-transfected HeLa cells, HTRF ratio value
Type: cell-based, human
Conditions: HeLa cells transfected with reporter plasmid; IL-4 0-100 ng/ml, 3-48 hours
Protocol: HeLa cells (cells deposited with ATCC) were dispersed at a density of 1.2×10^5 cells/ml in a medium (MEM medium containing 10% fetal bovine serum, 100 units/ml penicillin G, 100 μg/ml streptomycin) and then put in a volume of 100 μl per well on a 96-well tissue culture plate. After 24 hours, 20 μg of the reporter plasmid prepared in Example 1, and 60 μl FuGENE6 (Roche), were added to 2 ml FBS-free medium, then left at room temperature for 20 minutes, and added in a volume of 5 μl to each well, followed by incubation for 24 hours to transfect the cells with the reporter plasmid.
After the culture supernatant of the cells was removed, 100 μl of IL-4 diluted with a medium was added at final concentrations of 0, 4, 20 and 100 ng/ml respectively to the respective wells and cultured for 3, 6, 24 and 48 hours. After culture, a cell lysis buffer (Tris buffered physiological saline containing 1% Triton X-100, 5 mM EDTA and a protease inhibitor cocktail) was added in a volume of 100 μl to each well and left at room temperature for 1 hour. […] After the reaction was finished, the fluorescence intensity of each well at 665 nm was measured with a time-resolved fluorescence microplate reader (Rubystar, BMG Labtechnologies). The measurement value was expressed as the ratio value to the fluorescence intensity of cryptate at 620 nm.

B1: IL-4: cytokine that binds IL-4 receptors and activates JAK1/JAK3 and transcription factor STAT6 (protein, UniProt P05112 25-153, looked up)
Interleukin-4: HKCDITLQEIIKTLNSLTEQKTLCTELTVTDIFAASKNTTEKETFCRAATVLRQFYSHHEKDTRCLGATAQQFHRHKQLIRFLKRLDRNLWGLAGLNSCPVKEANQSTLENFLERLKTIMREKYSKCSS
- increase in ratio value by stimulation with IL-4: about 10 fold
